Reference: the RNAGym collection of RNA variant scans (doi:10.1073/pnas.2313332121)

B1: TPR t1 (parent)
chain: GACCAAUCUGCCCUCAGAGCUCGAGAACAUCUUCGGAUGCAGAGGAGGCAGGCUUCGGUGGCGCGAUAGCGCCAACGUCCUCAACCUCCAAUGCAUCCCACCACAUGAUGAUGCCUGAAGAGCCUUGGUUUUUUG

Variants of: B1
Experiment: polymerase ribozyme fitness, log enrichment relative to wild type (log ratio); higher = more active; in vitro selection for triplet polymerase activity
How it was run: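 The heterodimeric triplet polymerase ribozyme's subunits were each mutagenized into PCR-built libraries and transcribed. Every library was selected once, in triplicate, by annealing with a biotinylated primer, the partner subunit and triplets, incubating frozen at −7 °C, gel-excising extended constructs, capturing on streptavidin beads and running RT-PCR. Input and output libraries were Illumina-sequenced, with genotypes kept only at ≥10 input reads and ≥1 read per output. Fitness, from inverse-variance-weighted replicate averages, is the base-2 logarithm of genotype enrichment over wild-type enrichment.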

Point of comparison: C15G C98U A111G, “polymerase ribozyme fitness (log ratio)” value -5.41. Against it:
- U55G G60U A103U — within 0.2 log units, -5.31
- G71C C114U G122A U129A — higher, -4.82
- C11G C28U — higher, -2.03
- G17A C53A C124G — higher, -0.146
- C8A G44U G51U U59C G77U U112C U130A — higher, -4.84
- C62A C72G U112G — higher, -1.95
- C13U C34G G47U C72G U112A — within 0.2 log units, -5.6
- C40G C114G — higher, -4.17
- A29C C53G A111U — higher, -1.63
- C88U G120C — higher, 0.853
- U9G C62G G120C — higher, 0.877
- G10C G47U C101A A103U — lower, -6.38
- C4A G113U — higher, -3.74
- C13A C49U C53G U112C — higher, -2.14
- C82A C99U — higher, -4.04
- C11U A43U C56U C114G G128C — within 0.2 log units, -5.28
- A16U G69U A121C — higher, 1.22
- C12U C49A C76G C80G C88A U92C U112C — lower, -7.46
- C62G G120U — higher, -1.64
- C28U C80U A90G C124G — higher, -0.852
- C3U A43C C73A U87G — higher, -2.3
- U14A G48A U59A C89A — lower, -5.96
- G117C A121C — higher, -3.29
- C62A A84U — higher, -1.52
- C56G G69A A119U — higher, -3.54
- A16U C62A A105C — higher, -4.73
- G57C U59A — higher, -0.128
- C15A C53U G63C — higher, -2.5
- G19C C62U C64U G120C — higher, -2.12
- G17A A46C — higher, -3.18
- C12A U32C U96A G122C C123G U131A — higher, -0.725
- C13A G69U C72A G113A — higher, -1.88
- G60A C88U — higher, -0.511
- A6U C15U A26G C86U A100U G120A C123A U125G — within 0.2 log units, -5.49
- C89G U125A — higher, -2.07
- C82U U109G U130G — lower, -6.23
- G48C C49U U59A — higher, -1.34
- U7A C22A C40G A68U A84C G110C — lower, -6.51
- A37C G44A C53A G63C C124A — higher, -3.21
- C40G A43G C114U — higher, -4.36
- C40G G57U — higher, -1.36
- U9A C12U C15A C53G U54C U106G — higher, -3.06
- G17A A90C — higher, -3.17
- U7G C13A C49G U96C — higher, -0.772
- C102A U130A — higher, -3.46
- G48U G93C A121G — higher, 0.759
- A29U C62G U81C A100U C124A — higher, -3.66
- A16U A50G U96A U112C G127C — higher, -2.27
- C79A C99A — lower, -6.57
- U33A G57U C124A U126A — higher, -3.51
- C8A C12A C70U G77C U92A G127U U130G U131A — lower, -6.59
- C49U C82U A121U G127A — higher, 0.337
- G10A A18U G77A U87A C115A — higher, -1.44
- A16G A75U C123U — higher, -0.477
- G10A G63U C86U G120A — higher, 0.0567
- C11G C20A A26U C85U A90U A121C — higher, -4.44
- C3A C8G C88U A90C G110A U132A — higher, -2.77
- A2U G51A C123A — higher, -4.9
- C8G G58C A75C A108U U132A — lower, -5.79
- G110C C115U — higher, -4.71
- A37C G39U C56U — higher, -2.66
- A29G C40A A41U U92G — higher, -4.59
- C4U G60U — higher, -0.43
- G39U A41U A95C G117U — higher, -4.57
- U9A C12U A37G G61A — higher, 0.106
- C11A G52A C73G — higher, -2.98
- G35C A46C C97U — lower, -6.04
- C13U C53A U54C G120C — higher, 1.15
- C56A G71U U81C A111U C115U — lower, -6.9
- A18G C34A — within 0.2 log units, -5.57
- G48A C114A — higher, -2.8
- G44C G71A — higher, -1.25
- C20U G45A — higher, -2.57
- C12U G39A C72G C85U — higher, -1.34
- G60A U133A — higher, -0.249
- U14G C80U C89G — higher, -4.89
- A46U G60C G93C G113C A121C — higher, -4.8
- C94U C101A — higher, -1.52
- C4A G48U G61C C89U A121G — higher, -1.77
- C12U U112G — higher, 0.735
- C11U U116G G122A C124U — higher, 0.369
- C13G U59C — higher, 0.688
- A16G C40G — higher, -0.424
- C70G C89U — higher, -2.75
- C13G U32C C53A C70G — higher, -3.88
- G71C C73U C79G A90U — lower, -6.83
- C11U C53U C72U C82G C123G — higher, -0.853
- U14G C114U U132A — lower, -7.19
- G48A A105C G120A A121C G122U U129A — higher, -3.55
- G36A G77C — higher, -1.72
- A2C C15U C56U U129C — higher, -1.75
- G52A C80U — higher, -1.94
- C40A C49U — higher, -2.52
- G60U C97U — higher, -1.7
- A6G U21C G61C C114A — higher, -3.62
- C73A C101U G122A U131C — higher, -1.18
- A2G U55G G71A A95U — higher, -1.12
- U7A C56U G120U — higher, 0.935
- C34A U54A G69U A121G — higher, 1.52
- C12A C85G — higher, -2.79
- C40G C56G C124G G127U — higher, -0.222
- G42A G77A — higher, -2.61
- C11A C56A U81G A84U C101U C115A G120C U134G — higher, 0.0951
- G60C C102U G128A — higher, -4.97
- G61U C115G G117A G122U U126C — higher, -4.57
- C3U C73G A83G — higher, -2.1
- G42A C114U — higher, -2.35
- A18U C40G — higher, -4.04
- G48U C72U C76U A105U — higher, -3.61
- A16G U54C — higher, -1.39
- G69A G93U A111G G122A — within 0.2 log units, -5.44
- C4U C8G G36U U38A G44U C124A — higher, -5.08
- U21A U106A U132A — higher, -0.182
- G39U G52U C70U — higher, -2.08
- C4U A5C C12G C62U C89U C123G — higher, -1.41
- C40U C56U A91C C97U C115U — higher, -3.89
- A83U C101G — higher, -1.74
- C15G C49G G61A C85A G110A — higher, -3.95
- C11G G51C — higher, -4.46
- C8A G51C C53A C88A C114A — lower, -5.74
- C20G C114G C115U — lower, -6
- C53A U112G C124A — higher, 0.889
- G36A G44A G77U A84U — higher, -2.98
- C72A C82A C97G C114G — lower, -5.93
- C12A C40U C89A U125A U130G — higher, -5
- A6C C40U G44A A121U — higher, 0.36
- G47A G51U C72U U78C — higher, -5
- A18C G69U — higher, -0.162
- C40U G42A G63C U125G — higher, -2.99
- G122U — higher, 0.322
- C15G G44U C72U — higher, -4.59
- C56U U59A C101U G122A — higher, -1.81
- G61A C70U G120U C123G — higher, -0.0638
- G23U C31G C102G C124A — lower, -6.83
- C15U A16U G57A C82U U112A — within 0.2 log units, -5.23
- A26U A121U — higher, -0.422
- G51A C72G U96A — higher, -3.94
- C12A C15A C72U C79A C88A — higher, -5.1
- G19A C53U — higher, -2.82
- C102G U112A — lower, -5.7
- C4A U7G G69C A90C U112C C123U — higher, -3.35
- C40G C53A C123G — higher, 0.48
- C8A A26U C94U C124G U125G G127U — higher, -0.974
- C62U C89U — higher, -0.519
- C79G C102U — higher, -4.67
- U9G C40G G110U C123G — higher, -4.98
- C22G G58C — higher, -2.94
- A2G U21A G69U G71C — higher, -4.01
- C56U G57C G69C — higher, -0.611
- C49U C53U C89U — higher, -0.369
- A41U C82G — higher, -2.37
- G45C C49U C56G A121C — higher, -0.675
- A2U C40A G128U — higher, -4.11
- C15U C76U A100U G120C — higher, 0.0455
- G42A U55A C82G — higher, -2.94
- U21C C22A C88U — higher, -4.68
- C64U C86U G110U G122A — higher, -4.18
- C4U G110U — higher, -1.93
- A5G A26C A100U U106A C124A — higher, -1.48
- C64G U78C C115A — lower, -5.99
- A5U G47A C101U — higher, -1.94
- C4A A29U G48U G71U U109G — higher, -5.09
- A16G G48A U126G — higher, -4.19
- G51A U131A — higher, -2.2
- A66G — higher, -0.466
- U112C U132A — higher, 1.65
